# T1: His-tagged human TIGIT (human, UniProt Q495A1 22-141)
# T1 construct: SPR analyte; also called human TIGIT protein; not shown: His tag
# T1 sequence: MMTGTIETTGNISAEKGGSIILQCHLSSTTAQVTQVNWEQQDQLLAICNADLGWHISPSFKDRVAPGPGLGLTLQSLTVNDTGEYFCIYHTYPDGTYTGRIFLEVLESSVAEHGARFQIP
# T2: human TIGIT expressed on CHO-K1 cells (human, UniProt Q495A1 22-244)
# T2 construct: whole, on cells; also called human TIGIT-CHO-K1 cells; human TIGIT over-expressing cell line
# T2 sequence (looked up): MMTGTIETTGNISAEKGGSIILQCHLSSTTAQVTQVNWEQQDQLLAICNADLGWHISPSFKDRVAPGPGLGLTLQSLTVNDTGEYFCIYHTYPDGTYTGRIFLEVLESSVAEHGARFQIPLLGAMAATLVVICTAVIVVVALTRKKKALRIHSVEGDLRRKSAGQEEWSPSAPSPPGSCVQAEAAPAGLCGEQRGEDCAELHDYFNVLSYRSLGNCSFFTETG
# T3: TIGIT on TIGIT-over expressing NFAT-Luc/Jurkat effector cells (GenScript reporter cell line) (UniProt Q495A1 22-244, limits assumed)
# T3 sequence (looked up): T2 sequence (looked up)
# B1: TIGIT-3 chimeric antibody (antibody, human IgG1, kappa, V domains shown)
# VH: EVQLVESGGGLVQPGGSLKLSCAASGFTFSSYGMSWVRQTPDKRLELVATIKSDGGSTNLPDSVKGRFTISRDNAKNTLHLQMSSLKSEDTAMYYCVRGYFDYWGQGTSVTVSS
# VL: DIVMTQSHKFMSTSVGDRVSITCKASQDVKTAVAWYQQKPGQSPKLLIYWSSTRHTGVPDRFTGSRSLTDHTLTISSVQAEDLALYYCQQYYSTPYTFGGGTKLELKR
# notes: also called 3VH + 3VL
# B2: huTIGIT-3-1 (antibody, human IgG1, kappa, V domains shown)
# VH: EVQLVESGGGLVQPGGSLRLSCAASGFTFSSYGMSWVRQAPGKGLELVATIKSSGGSTNLADSVKGRFTISRDNSKNTLYLQMNSLRAEDTAVYYCVRGYFDYWGQGTTVTVSS
# VL: DIQMTQSPSSLSASVGDRVTITCRASQDIKTALAWYQQKPGKSPKLLIYWASTRQSGVPSRFSGSGSGTDFTLTISSLQPEDVATYYCQQYYSTPYTFGGGTKVEIKR
# notes: Humanized IgG; also called 3VH3.M4 + 3VL4.M6
# B3: reshaped TIGIT-3 antibody 3VH3.M4 + 3VL5.M6 (antibody, V domains shown)
# VH: B2 VH
# VL: DIQMTQSPSSLSASVGDRVTITCRASQDIKTALAWYQQKPGQSPKLLIYWASTRQSGVPSRFSGSGSGTDFTLTISSLQPEDVATYYCQQYYSTPYTFGGGTKVEIK
# notes: Full-length IgG, tested as HEK293 supernatant
# B4: TIGIT-87 chimeric antibody (antibody, human IgG1, kappa, V domains shown)
# VH: EVKLVESGPELVKPGASMKISCKASGYSFTGYTMNWVKQSHGKNLEWIGLINPYNGGTSYNQKFKGKATLTVDKSSSTAYMELLSLTSEDSAVYYCARYANRFENWFAYWGQGTLVTVSS
# VL: DIQMTQSPASLSASVGETVTITCRASENIYSYLAWYQQKQGKSPQLLVYNAKTLAEGVPSRFSGSGSGTQFSLKINSLQPEDFGSYYCQHHYGTPWTFGGGTKLEIKR
# notes: Full-length chimeric IgG1 kappa
# B5: TIGIT-94 chimeric antibody (antibody, human IgG1, kappa, V domains shown)
# VH: EVKLVESGGGLVKPGGSLKLSCAASGFTFSTYTMSWVRQTPEKRLEWVATISSGGTYTHYPDSVKGRFTISRDNAKNTLYLQMSSLKSEDTAMYYCTRWFLSLYAMDYWGQGTSVTVSS
# VL: DIVMTQSTSSLSASLGDRVTISCRASQDINNFLNWYQQKPAGTVDLLIYYTSRLHSGVPSRFSGSGSGTDYSLTISNLDQEDIATYFCQQGNTFPYTFGGGTRLEIKR
# notes: as for B4
# B6: 4.1D3 (anti-TIGIT positive control antibody) (antibody, V domains shown)
# VH: QVQLQQSGPGLVKPSQTLSLTCAISGDSVSSNSAAWNWIRQSPSRGLEWLGKTYYRFKWYSDYAVSVKGRITINPDTSKNQFSLQLNSVTPEDTAVFYCTRESTTYDLLAGPFDYWGQGTLVTVSS
# VL: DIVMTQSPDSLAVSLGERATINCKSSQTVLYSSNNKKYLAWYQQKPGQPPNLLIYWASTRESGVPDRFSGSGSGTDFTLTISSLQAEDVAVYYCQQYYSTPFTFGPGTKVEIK
# B7: TIGIT-6 chimeric antibody (antibody, human IgG1, kappa, V domains shown)
# VH: QVQLKQSGPELVKPGASVKISCKTSGYTITENTMHWVKQSHGKSLEWIGGINPNNGGTSYNQQFKGKATLTVDKSSSTAYMELRSLTSEDSAVYYCTRSSYYRYDLDYWGQGTTVTVSS
# VL: DIQMTQSHKFMSTSVGDRVSITCKASQDVKTALAWYQQKPGQSPKLLIYSASYRYTGVPDRFTGSGSGTDFTFTISSVQAEDLAVYYCHQHYTTPWTFGGGTKLEIKR
# notes: also called 6VH + 6VL
# B8: TIGIT-15 chimeric antibody (antibody, human IgG1, kappa, V domains shown)
# VH: DVQLVESGGGLVQPGGSLKLSCAASGFTFSSYGMSWVRQTPDRRLELVATINNNGGSTYYPDSVKGRFTISRDNARNTLYLQMSSLKSEDTAMYYCATRTGTEILGFDFWGQGTTLTVSS
# VL: DIVLTQSHKFMSTSLGDRVSITCKASQDVSTAVAWYQQKPGQSPKLLIYWASSRHTGVPDRFTGSRSGPDYTLTISSVQAEDLALYYCQQQYSTPWTFGGGTKLEIKR
# notes: as for B4
# B9: reshaped TIGIT-3 antibody 3VH3.M4 + 3VL (antibody, V domains shown)
# VH: B2 VH
# VL: DIVMTQSHKFMSTSVGDRVSITCKASQDVKTAVAWYQQKPGQSPKLLIYWSSTRHTGVPDRFTGSRSLTDHTLTISSVQAEDLALYYCQQYYSTPYTFGGGTKLELK
# notes: as for B3
# Molecular target: T1, His-tagged human TIGIT
# Assay: SPR experiment 4, IgG from HEK293 supernatant captured
Binder,Kd,koff,kon
B1,280 pM,0.00017 s⁻¹,610000 M⁻¹ s⁻¹
B2,560 pM,0.00046 s⁻¹,820000 M⁻¹ s⁻¹
B3,500 pM,0.00043 s⁻¹,870000 M⁻¹ s⁻¹

# Molecular target: T4, His-tagged cynomolgus TIGIT (cynomolgus, UniProt A0A7N9I9V4 89-209)
# T4 construct: SPR analyte; also called cynomolgus TIGIT protein; not shown: His tag
# T4 sequence (A0A7N9I9V4 entry or part of it): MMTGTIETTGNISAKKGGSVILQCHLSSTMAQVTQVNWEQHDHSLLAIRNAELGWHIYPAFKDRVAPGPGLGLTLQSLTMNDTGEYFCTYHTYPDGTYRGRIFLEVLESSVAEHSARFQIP
# Assay: SPR (Biacore T200), antibody captured, His-tagged TIGIT analyte
Binder,Kd,koff,kon
B1,1800 pM,0.0002 s⁻¹,110000 M⁻¹ s⁻¹
B4,47000 pM,0.063 s⁻¹,1.3e+06 M⁻¹ s⁻¹
B5,7700 pM,0.0075 s⁻¹,980000 M⁻¹ s⁻¹
B6,5400 pM,0.0011 s⁻¹,200000 M⁻¹ s⁻¹
B7,54000 pM,0.0049 s⁻¹,90000 M⁻¹ s⁻¹
B8,1100 pM,0.0002 s⁻¹,180000 M⁻¹ s⁻¹

# Molecular target: T1, His-tagged human TIGIT
# Assay: as above
Binder,Kd,koff,kon
B1,81 pM,5.9e-05 s⁻¹,730000 M⁻¹ s⁻¹
B4,630 pM,0.0012 s⁻¹,2e+06 M⁻¹ s⁻¹
B5,1600 pM,0.0019 s⁻¹,1.2e+06 M⁻¹ s⁻¹
B6,65 pM,4.3e-05 s⁻¹,660000 M⁻¹ s⁻¹
B7,240 pM,0.00013 s⁻¹,560000 M⁻¹ s⁻¹
B8,190 pM,0.00016 s⁻¹,860000 M⁻¹ s⁻¹

# Molecular target: T1, His-tagged human TIGIT
# Assay: SPR experiment 1, IgG from HEK293 supernatant captured
Binder,Kd,koff,kon
B7,94 pM,5.3e-05 s⁻¹,560000 M⁻¹ s⁻¹

# Molecular target: T2, human TIGIT expressed on CHO-K1 cells
# Assay: flow cytometry competition: biotinylated CD155-Fc on human TIGIT-CHO-K1 cells
row,Binder,IC50
1,B1,558 pM
2,B6,950 pM
3,B7,566 pM
4,B2,502 pM

# Molecular target: T1, His-tagged human TIGIT
# Assay: SPR experiment 2, IgG from HEK293 supernatant captured
Binder,Kd,koff,kon
B9,360 pM,0.00016 s⁻¹,450000 M⁻¹ s⁻¹

# Molecular target: T3, TIGIT on TIGIT-over expressing …
# Assay: cell-based or functional assay
Binder,Bottom (RLU),EC50,Top (RLU)
B1,11200 RLU,2770 pM,42800 RLU
B4,9300 RLU,> 100000 pM,17000 RLU
B5,9960 RLU,92800 pM,59800 RLU
B6,12600 RLU,9280 pM,44200 RLU
B7,10900 RLU,9420 pM,49800 RLU
B8,7720 RLU,17400 pM,51900 RLU

# Molecular target: T4, His-tagged cynomolgus TIGIT
# Assay: SPR (Biacore T200), antibody captured, His-tagged TIGIT analyte
# Remark: another data set of the same source
Binder,Kd,koff,kon
B1,450 pM,5.3e-05 s⁻¹,120000 M⁻¹ s⁻¹
B6,3000 pM,0.00083 s⁻¹,270000 M⁻¹ s⁻¹
B7,39000 pM,0.0046 s⁻¹,120000 M⁻¹ s⁻¹
B2,18000 pM,0.0022 s⁻¹,120000 M⁻¹ s⁻¹

# Molecular target: T1, His-tagged human TIGIT
# Assay: as above
# Remark: another data set of the same source
Binder,Kd,koff,kon
B1,75 pM,4.7e-05 s⁻¹,630000 M⁻¹ s⁻¹
B6,55 pM,3.5e-05 s⁻¹,630000 M⁻¹ s⁻¹
B7,170 pM,9e-05 s⁻¹,520000 M⁻¹ s⁻¹
B2,540 pM,0.00031 s⁻¹,570000 M⁻¹ s⁻¹

# Molecular target: T1, His-tagged human TIGIT
# Assay: SPR experiment 1, IgG from HEK293 supernatant captured
# Remark: another data set of the same source
Binder,Kd,koff,kon
B1,240 pM,0.00012 s⁻¹,510000 M⁻¹ s⁻¹

# Molecular target: T3, TIGIT on TIGIT-over expressing …
# Assay: cell-based or functional assay
# Remark: another data set of the same source
Binder,Bottom (RLU),EC50,Top (RLU)
B1,55800 RLU,2100 pM,148000 RLU
B6,55300 RLU,9690 pM,142000 RLU
B7,51400 RLU,4900 pM,139000 RLU
B2,54400 RLU,4920 pM,152000 RLU

# Molecular target: T5, cynomolgus TIGIT expressed on CHO-K1 cells (cynomolgus, UniProt A0A7N9I9V4 89-312)
# T5 construct: whole, on cells; also called cynomolgus TIGIT over-expressing cell line
# T5 sequence (A0A7N9I9V4 entry or part of it): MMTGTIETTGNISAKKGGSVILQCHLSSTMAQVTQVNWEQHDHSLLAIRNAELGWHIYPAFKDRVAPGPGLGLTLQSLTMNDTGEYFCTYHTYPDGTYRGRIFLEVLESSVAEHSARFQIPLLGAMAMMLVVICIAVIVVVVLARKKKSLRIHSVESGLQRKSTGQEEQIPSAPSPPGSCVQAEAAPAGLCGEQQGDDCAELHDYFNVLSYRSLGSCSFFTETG
# Assay: flow cytometry on CHO-K1 cells expressing cynomolgus TIGIT
row,Binder,EC50
1,B1,2000 pM
2,B4,810 pM
3,B5,740 pM
4,B6,2770 pM
5,B7,2640 pM
6,B8,3530 pM

# Molecular target: T2, human TIGIT expressed on CHO-K1 cells
# Assay: flow cytometry on CHO-K1 cells expressing human TIGIT
row,Binder,EC50
1,B1,530 pM
2,B4,400 pM
3,B5,510 pM
4,B6,950 pM
5,B7,420 pM
6,B8,1030 pM

# Molecular target: T5, cynomolgus TIGIT expressed on CHO-K1 …
# Assay: flow cytometry on CHO-K1 cells expressing cynomolgus TIGIT
# Remark: another data set of the same source
row,Binder,EC50
1,B1,1420 pM
2,B6,2340 pM
3,B7,2310 pM
4,B2,1720 pM

# Molecular target: T2, human TIGIT expressed on CHO-K1 cells
# Assay: flow cytometry competition: biotinylated CD155-Fc on human TIGIT-CHO-K1 cells
# Remark: another data set of the same source
row,Binder,IC50
1,B1,380 pM
2,B4,530 pM
3,B5,720 pM
4,B6,1400 pM
5,B7,570 pM
6,B8,1070 pM

# Molecular target: T1, His-tagged human TIGIT
# Assay: SPR experiment 2, IgG from HEK293 supernatant captured
# Remark: another data set of the same source
Binder,Kd,koff,kon
B7,290 pM,0.00012 s⁻¹,420000 M⁻¹ s⁻¹

# Molecular target: T2, human TIGIT expressed on CHO-K1 cells
# Assay: flow cytometry on CHO-K1 cells expressing human TIGIT
# Remark: another data set of the same source
row,Binder,EC50
1,B1,346 pM
2,B6,1050 pM
3,B7,581 pM
4,B2,511 pM
